Data published in patent US20090053184A1.

Legend:
Assay in all cases: chromium release; transduced lymphocytes against T2 cells having HLA-A2 pulsed with 'NY-ESO-1 peptide'; which of the listed peptides not given; full-length, on cells
Conditions in all cases: chains Valpha:Vbeta
[1] = molecular target: T1, NY-ESO-1 peptide on HLA-A*02:01 (human)
T1 chain: SLLMWTTQC

[2] = molecular target: T2, NY-ESO-1 peptide on HLA-A*02:01 (human)
T2 chain: SLLMWTTQCFLP

[3] = molecular target: T3, NY-ESO-1 peptide on HLA-A*02:01 (human)
T3 chain: SLLMWTTQV

Measured: lowest peptide concentration that stimulated killing

B1: anti-NY-ESO-1 TCR (SEQ ID NOS: 6 and 8) (protein)
chain 1: SQQGEEDPQALSIQEGENATMNCSYKTSINNLQWYRQNSGRGLVHLILIRSNEREKHSGRLRVTLDTSKKSSSLLITASRAADTASYFCATDGAGKSTFGDGTTLTVKP
chain 2: DAGVIQSPRHEVTEMGQEVTLRCKPISGHDYLFWYRQTMMRGLELLIYFNNNVPIDDSGMPEDRFSAKMPNASFSTLKIQPSEPRDSAVYFCASTIGAQPQHFGDGTRLSIL
< 0.02 nM: all assays above
